In assay [1] the target is mouse DLL3 expressed on CHO cells (mouse) (UniProt O88516). Put plainly: flow cytometry, 10 ug/ml AMG 757 on CHO muDLL3 cells, anti-human IgG Fc-APC. On the technique in general: Flow cytometry measures light scatter and fluorescence of single cells or particles in a stream.
Assay [2] deals with rat DLL3 expressed on CHO cells (rat) (UniProt O88671). The experiment in a line: flow cytometry, 10 ug/ml AMG 757 on High CHO rtDLL3 cells, anti-human IgG Fc-APC.
Assay [3] shares this target. The experiment in a line: flow cytometry, 10 ug/ml AMG 757 on Low CHO rtDLL3 cells, anti-human IgG Fc-APC.
Assay [4] concerns the target human DLL3 expressed on the surface of cells (human) (UniProt Q9NYJ7). The experiment in a line: flow cytometry, 10 ug/ml AMG 757 on CHO huDLL3 cells, anti-human IgG Fc-APC.
The target in assay [5] is cynomolgus monkey DLL3 expressed on CHO cells (cynomolgus monkey). Put plainly: flow cytometry, 10 ug/ml AMG 757 on CHO cynoDLL3 cells, anti-human IgG Fc-APC.
Chain of cynomolgus monkey DLL3 expressed on CHO cells (cynomolgus monkey) (chain, as listed by the source, form in doubt): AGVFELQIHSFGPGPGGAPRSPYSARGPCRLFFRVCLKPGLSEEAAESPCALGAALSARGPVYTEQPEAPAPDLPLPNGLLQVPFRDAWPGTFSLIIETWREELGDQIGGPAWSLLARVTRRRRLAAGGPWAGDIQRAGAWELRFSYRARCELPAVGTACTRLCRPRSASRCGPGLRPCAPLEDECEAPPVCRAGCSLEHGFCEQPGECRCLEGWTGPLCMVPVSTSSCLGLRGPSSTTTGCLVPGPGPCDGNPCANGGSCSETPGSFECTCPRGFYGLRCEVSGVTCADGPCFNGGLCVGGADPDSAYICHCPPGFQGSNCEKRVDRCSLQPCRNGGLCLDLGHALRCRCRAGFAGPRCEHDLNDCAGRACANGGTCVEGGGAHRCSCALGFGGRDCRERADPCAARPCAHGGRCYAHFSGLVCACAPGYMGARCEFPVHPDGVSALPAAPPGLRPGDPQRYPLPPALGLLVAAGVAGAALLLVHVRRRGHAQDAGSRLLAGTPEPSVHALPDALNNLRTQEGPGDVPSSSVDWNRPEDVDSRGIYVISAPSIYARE
Assay [6] deals with human FLT3 expressed on CHO cells (human) (UniProt P36888). The experiment in a line: flow cytometry, 10 ug/ml AMG 757 on CHO huFTL3 (negative control) cells, anti-human IgG Fc-APC.

Chain of rat DLL3 expressed on CHO cells (rat) (O88671 33-589): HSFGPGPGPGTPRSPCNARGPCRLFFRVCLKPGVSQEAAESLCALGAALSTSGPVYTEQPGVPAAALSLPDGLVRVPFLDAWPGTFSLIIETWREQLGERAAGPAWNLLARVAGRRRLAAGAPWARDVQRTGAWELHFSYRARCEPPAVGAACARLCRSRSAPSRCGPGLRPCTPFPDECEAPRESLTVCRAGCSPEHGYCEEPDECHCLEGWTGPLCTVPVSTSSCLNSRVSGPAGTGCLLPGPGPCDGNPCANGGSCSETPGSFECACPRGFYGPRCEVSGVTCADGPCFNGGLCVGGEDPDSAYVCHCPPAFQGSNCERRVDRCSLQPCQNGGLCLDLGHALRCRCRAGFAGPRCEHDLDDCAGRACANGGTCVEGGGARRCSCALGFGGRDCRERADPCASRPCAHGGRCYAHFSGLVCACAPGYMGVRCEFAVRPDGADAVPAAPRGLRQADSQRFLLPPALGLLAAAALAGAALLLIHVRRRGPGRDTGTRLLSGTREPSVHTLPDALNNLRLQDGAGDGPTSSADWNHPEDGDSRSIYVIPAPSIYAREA
Chain of mouse DLL3 expressed on CHO cells (mouse) (O88516 33-592): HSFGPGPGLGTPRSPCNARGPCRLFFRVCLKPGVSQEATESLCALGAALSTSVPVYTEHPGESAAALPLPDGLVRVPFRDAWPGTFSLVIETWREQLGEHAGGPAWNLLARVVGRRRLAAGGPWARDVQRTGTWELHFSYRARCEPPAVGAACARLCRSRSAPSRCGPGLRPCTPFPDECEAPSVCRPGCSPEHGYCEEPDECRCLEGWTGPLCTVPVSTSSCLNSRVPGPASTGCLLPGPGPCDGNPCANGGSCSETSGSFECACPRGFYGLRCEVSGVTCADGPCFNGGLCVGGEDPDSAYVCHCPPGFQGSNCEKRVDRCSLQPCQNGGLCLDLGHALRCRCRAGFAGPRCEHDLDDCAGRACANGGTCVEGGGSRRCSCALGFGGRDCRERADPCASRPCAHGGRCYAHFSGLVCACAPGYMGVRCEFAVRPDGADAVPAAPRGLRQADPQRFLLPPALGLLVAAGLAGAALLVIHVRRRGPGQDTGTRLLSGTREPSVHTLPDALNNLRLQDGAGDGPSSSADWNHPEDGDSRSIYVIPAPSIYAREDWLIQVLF
Chain of human DLL3 expressed on the surface of cells (human) (Q9NYJ7 27-618 limits assumed): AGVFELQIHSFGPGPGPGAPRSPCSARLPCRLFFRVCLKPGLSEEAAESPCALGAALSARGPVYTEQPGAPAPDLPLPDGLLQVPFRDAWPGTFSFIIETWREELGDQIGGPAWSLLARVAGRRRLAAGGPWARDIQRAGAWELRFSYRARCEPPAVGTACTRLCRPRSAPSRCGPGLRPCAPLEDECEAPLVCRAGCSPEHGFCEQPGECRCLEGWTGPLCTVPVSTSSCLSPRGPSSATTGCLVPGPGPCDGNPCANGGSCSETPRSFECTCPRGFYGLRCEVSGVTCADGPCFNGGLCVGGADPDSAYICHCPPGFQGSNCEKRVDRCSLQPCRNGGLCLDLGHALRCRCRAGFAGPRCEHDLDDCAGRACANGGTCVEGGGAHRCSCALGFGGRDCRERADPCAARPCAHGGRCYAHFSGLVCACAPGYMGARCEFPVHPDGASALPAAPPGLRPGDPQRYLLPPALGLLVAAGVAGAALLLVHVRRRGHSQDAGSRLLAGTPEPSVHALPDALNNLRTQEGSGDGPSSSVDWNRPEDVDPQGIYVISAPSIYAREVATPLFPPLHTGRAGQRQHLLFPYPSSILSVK

For AMG 757 (bispecific antibody), the DLL3 positive cells (%) amounted to 99.5% in assay [1]; 98.6% in assay [2]; 98.6% in assay [3]; 99.7% in assay [4]; 98.4% in assay [5]; 3.3% in assay [6].

These data come from patent US20250074943A1, “DLL3 BINDING PEPTIDES AND USES THEREOF” (AMGEN INC., priority 2021, published 2025).
